From article PMC9654219, “Molecular Mechanism of Sirtuin 1 Modulation by the AROS Protein” (International Journal of Molecular Sciences, 2022)

T1: AROS 1–89 (N-terminus of AROS) (human, UniProt Q86WX3 1-89)
T1 construct: human AROS (RPS19BP1), residues 1-89; Preparation is told for 'human AROS constructs' in general
T1 sequence (looked up): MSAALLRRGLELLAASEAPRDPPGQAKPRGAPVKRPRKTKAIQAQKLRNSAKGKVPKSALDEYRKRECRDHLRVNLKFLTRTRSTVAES

T2: full-length Sirt1 (human, UniProt Q96EB6 1-747)
T2 sequence (looked up): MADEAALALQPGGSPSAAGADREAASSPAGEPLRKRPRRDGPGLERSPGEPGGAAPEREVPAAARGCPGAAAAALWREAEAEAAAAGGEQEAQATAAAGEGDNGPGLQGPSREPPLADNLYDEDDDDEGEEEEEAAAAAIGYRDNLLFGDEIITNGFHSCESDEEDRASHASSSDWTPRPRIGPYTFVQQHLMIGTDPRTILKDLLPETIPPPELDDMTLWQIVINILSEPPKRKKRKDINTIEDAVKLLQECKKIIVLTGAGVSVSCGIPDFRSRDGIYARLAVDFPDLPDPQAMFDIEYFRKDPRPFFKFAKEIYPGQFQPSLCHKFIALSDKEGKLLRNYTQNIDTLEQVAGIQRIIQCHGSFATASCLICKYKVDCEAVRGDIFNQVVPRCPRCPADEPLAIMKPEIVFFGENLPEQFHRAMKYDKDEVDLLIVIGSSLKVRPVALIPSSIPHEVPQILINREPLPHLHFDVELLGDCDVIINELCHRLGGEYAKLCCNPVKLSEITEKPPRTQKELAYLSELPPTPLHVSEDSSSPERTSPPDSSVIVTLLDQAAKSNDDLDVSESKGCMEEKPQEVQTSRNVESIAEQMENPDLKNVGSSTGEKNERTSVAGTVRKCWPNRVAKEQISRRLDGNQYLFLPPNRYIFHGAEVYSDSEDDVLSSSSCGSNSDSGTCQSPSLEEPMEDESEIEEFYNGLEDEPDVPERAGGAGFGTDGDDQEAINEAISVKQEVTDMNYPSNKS

T3: Sirt5 residues 34–302 (human, UniProt Q9NXA8 34-302)
T3 construct: human Sirt5, residues 34-302 (pET151/D-TOPO); source: E. coli BL21 (DE3) CodonPlus, purified (Ni beads, TEV cleavage, S200 gel filtration)
T3 sequence (looked up): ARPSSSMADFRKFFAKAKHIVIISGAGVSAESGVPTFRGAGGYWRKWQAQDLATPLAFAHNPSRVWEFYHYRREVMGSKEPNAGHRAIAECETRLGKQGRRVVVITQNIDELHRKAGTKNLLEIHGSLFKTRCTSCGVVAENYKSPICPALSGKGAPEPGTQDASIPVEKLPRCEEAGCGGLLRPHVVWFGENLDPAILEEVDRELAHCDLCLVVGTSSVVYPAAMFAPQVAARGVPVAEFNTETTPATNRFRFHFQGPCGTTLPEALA

T4: Sirt3 residues 118–399 (human, UniProt Q9NTG7 118-399)
T4 construct: human Sirt3, residues 118-399 (pVFT3S); source: E. coli BL21 (DE3) CodonPlus, purified (Ni beads, TEV cleavage, ion exchange, S200 gel filtration)
T4 sequence (looked up): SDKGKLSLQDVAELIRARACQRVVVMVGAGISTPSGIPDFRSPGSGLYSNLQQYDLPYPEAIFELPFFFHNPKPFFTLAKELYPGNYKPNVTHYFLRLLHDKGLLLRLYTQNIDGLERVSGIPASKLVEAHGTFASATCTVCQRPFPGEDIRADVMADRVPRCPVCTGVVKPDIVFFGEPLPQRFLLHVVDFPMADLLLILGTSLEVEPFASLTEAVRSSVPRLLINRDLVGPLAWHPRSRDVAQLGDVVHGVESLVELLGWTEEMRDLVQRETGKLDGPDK

B1: mini-Sirt1ex687 (domain or fragment)
chain: GPYTFVQQHLMIGTDPRTILKDLLPETIPPPELDDMTLWQIVINILSEPPKRKKRKDINTIEDAVKLLQECKKIIVLTGAGVSVSCGIPDFRSRDGIYARLAVDFPDLPDPQAMFDIEYFRKDPRPFFKFAKEIYPGQFQPSLCHKFIALSDKEGKLLRNYTQNIDTLEQVAGIQRIIQCHGSFATASCLICKYKVDCEAVRGDIFNQVVPRCPRCPADEPLAIMKPEIVFFGENLPEQFHRAMKYDKDEVDLLIVIGSSLKVRPVALIPSSIPHEVPQILINREPLPHLHFDVELLGDCDVIINELCHRLGGEYAKLCCNPVGGGSGGGSQYLFLPPNRYIFHGAEVYSDSEDDVLSSSSCGSNSDSGTCQSPSLEE
B2: Sirt1 144–230 (N-terminus and SBD) (domain or fragment, human, UniProt Q96EB6 144-230, looked up)
chain: DNLLFGDEIITNGFHSCESDEEDRASHASSSDWTPRPRIGPYTFVQQHLMIGTDPRTILKDLLPETIPPPELDDMTLWQIVINILSE
notes: also called Sirt1-SBD
B3: active regulator of Sirt1 (AROS), full length, residues 1-136 (natural protein, human, UniProt Q86WX3 1-136, looked up)
chain: MSAALLRRGLELLAASEAPRDPPGQAKPRGAPVKRPRKTKAIQAQKLRNSAKGKVPKSALDEYRKRECRDHLRVNLKFLTRTRSTVAESVSQQILRQNRGRKACDRPVAKTKKKKAEGTVFTEEDFQKFQQEYFGS
notes: human AROS (RPS19BP1), residues 1-136, with N-terminal hexahistidine tag and TEV protease cleavage site (modified pET19b); No tag removal is described; 15N-labelled for the NMR titrations; In MST either AROS or Sirt1 carried Cy5 on lysines; also called AROS 1–136; full-length AROS; not shown: His6, N-terminal, kept
B4: AROS peptide 62-71 (peptide)
peptide: EYRKRECRDH
notes: human AROS (RPS19BP1), residues 62-71; also called AROS62-71; AROS 62–71; source: synthetic peptide, bought: GL Biochem
B5: AROS peptide 96-109 (peptide)
peptide: RQNRGRKACDRPVA
notes: human AROS (RPS19BP1), residues 96-109; also called AROS96-109; AROS 96–109; source: synthetic peptide, bought: GL Biochem
B6: AROS peptide 80-91 (peptide)
peptide: TRTRSTVAESVS
notes: human AROS (RPS19BP1), residues 80-91; also called AROS80-91; AROS 80–91; source: synthetic peptide, bought: GL Biochem

Tests used:
[1] = molecular target: B3; experiment: MST; either AROS or Sirt1 labelled with Cy5-NHS ester (40–120 nM labelled protein); 50 mM Na2HPO4/NaH2PO4 pH 7.0, 250 mM NaCl, 2 mg/mL BSA, 20 °C; Monolith NT.115; settings: both partners purified
[2] = molecular target: T1, AROS 1–89 (N-terminus of AROS); experiment: as above; settings: both partners purified
full-length Sirt1 = molecular target: T2, full-length Sirt1; experiment: cell-based or functional assay
Sirt5 residues 34–302 = molecular target: T3, Sirt5 residues 34–302; experiment: cross-linking; 2 mM DSSO, 50 µM of each protein, 50 mM NaHPO4 pH 7, 250 mM NaCl, RT; SDS-PAGE; bands analysed by LC-ESI-MS/MS; settings: both partners purified
Sirt3 residues 118–399 = molecular target: T4, Sirt3 residues 118–399; experiment: crystal structure; 10 mg/mL Sirt3 pre-incubated with 1 mM AROS peptide 62–71 and 1 mM AROS peptide 96–109; 12% PEG 8.000, 0.1 M HEPES pH 7.5, 0.2 M NaCl, 20 °C; 3.27 Å; settings: both partners purified
mini-Sirt1ex687 = molecular target: B1; experiment: MST; either AROS or Sirt1 labelled with Cy5-NHS ester (40–120 nM labelled protein); 50 mM Na2HPO4/NaH2PO4 pH 7.0, 250 mM NaCl, 2 mg/mL BSA, 20 °C; Monolith NT.115; settings: both partners purified
[3] = molecular target: B2; experiment: as above; settings: both partners purified

Kd [2] [µM] | Kd (mini-Sirt1ex687) [µM] | Kd [3] [µM] | Binder | other results
65 ± 9 | – | – | B1 | Kd [1]: 1.3 ± 0.2 µM
209 ± 67 | – | – | B2 | –
– | – | – | B3 | increase of KM for the acetylated FdL substrate peptide with 40 µM AROS (FdL activity assay, substrate titration) (full-length Sirt1): ~3 fold; binding result (Sirt5 residues 34–302): binds
– | 86 ± 16 | 166 ± 24 | B4 | binding result (Sirt3 residues 118–399): binds
– | 151 ± 31 | – | B5 | –
– | 721 ± 310 | 579 ± 102 | B6 | –
